Source: patent publication US20190359687A1 (Bayer, published 2019)

How the values were obtained:
[1] = molecular target: T1, recombinant human GPA ectodomain (human, UniProt P02724 20-91); experiment: SPR, IgG
T1 construct: also called recombinant hGPA ECD; recGPA
T1 sequence: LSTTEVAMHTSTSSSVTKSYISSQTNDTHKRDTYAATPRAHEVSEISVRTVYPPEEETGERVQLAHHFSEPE

[2] = molecular target: T2, purified human glycophorin A protein (Sigma, cat # G5017) (human, UniProt P02724 20-150); experiment: ELISA, IgG
T2 construct: mature; also called Sigma hGPA; Sigma GPA
T2 sequence (looked up): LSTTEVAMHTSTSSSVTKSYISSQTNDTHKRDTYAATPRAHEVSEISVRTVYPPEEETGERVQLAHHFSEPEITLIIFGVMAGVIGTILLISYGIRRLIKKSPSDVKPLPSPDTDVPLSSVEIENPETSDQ

[3] = molecular target: T2, purified human glycophorin A protein …; experiment: ELISA, hGPA
Experimental: (§1) Hybridomas were generated from the spleen cells of these mice and these hybriomas were screened first by fluorescence activated cell sorting (FACS) against isolated human and monkey (Cynomolgus monkey and Rhesus monkey) red blood cells (RBC) and then by ELISA against purified human glycophorin A protein (GPA). Isolated RBC were prepared from whole blood from normal human, cynomolgus monkey, and beagle dog, were anticoagulant with sodium heparin (Bioreclamation). 2-3 mL of whole blood was loaded gently on the top of 3 mL Ficoll Plus (Sigma Aldrich) then centrifuged at 500 g for 20 min at room temperature (RT). The RBC pellets were washed 3 times with 10 mL of PBS, and centrifuge 400 g for 10 min at RT. RBC pellets were re-suspended in PBS at the same total volume as the original blood volume to achieve the same RBC cell density as in whole blood and stored at 4° C. Purified human glycophorin A protein was obtained from Sigma Aldrich and coated on ELISA plates at 2 ug/ml. Binding of antibodies to human GPA was detected using appropriate secondary antibodies using methods well known in the art.

[4] = molecular target: T3, human glycophorin A in the red blood cell membrane (human, UniProt P02724 20-150); experiment: FACS, hu RBC
T3 construct: whole, on cells; used for intact RBC, isolated RBC membranes and transfected cells; the assay field tells which; also called GPA; hGPA
T3 sequence (looked up): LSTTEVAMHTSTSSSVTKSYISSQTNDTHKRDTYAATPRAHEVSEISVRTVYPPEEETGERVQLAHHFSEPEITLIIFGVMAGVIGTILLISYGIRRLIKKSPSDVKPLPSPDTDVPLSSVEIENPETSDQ
Experimental: as §1

dog red blood cells [5] = molecular target: T4, dog red blood cells (dog); experiment: FACS, dog RBC
T4 construct: also called dog RBC

[6] = molecular target: T5, Cynomolgus monkey glycophorin A on Cynomolgus monkey red blood cells (Cynomolgus monkey); experiment: FACS, Cyno RBC
T5 construct: whole, on cells; also called Cyno RBC; Cyno GPA
Experimental: as §1

[7] = molecular target: T5, Cynomolgus monkey glycophorin A on …; experiment: FACS, RBC Cy01
Experimental: (§2) The binding of the humanized variants to intact red blood cells (RBC) from humans (Hu01 to 03; 3 individuals), Rhesus monkey (Rh01 to 03; 3 individuals) and Cynomolgus monkey (Cy01 to 02; 2 individuals) was measured by fluorescence activated cell sorting (FACS).

[8] = molecular target: T5, Cynomolgus monkey glycophorin A on …; experiment: FACS, RBC Cy02
Experimental: as §2

[9] = molecular target: T3, human glycophorin A in the red blood …; experiment: FACS, RBC Hu01
Experimental: as §2

[10] = molecular target: T3, human glycophorin A in the red blood …; experiment: FACS, RBC Hu02
Experimental: as §2

[11] = molecular target: T3, human glycophorin A in the red blood …; experiment: FACS, RBC Hu03
Experimental: as §2

[12] = molecular target: T6, Rhesus monkey glycophorin A on Rhesus monkey red blood cells (Rhesus monkey, UniProt A0A1D5Q349 20-150); experiment: FACS, RBC Rh01
T6 construct: whole, on cells; also called Rhesus RBC; monkey GPA
T6 sequence: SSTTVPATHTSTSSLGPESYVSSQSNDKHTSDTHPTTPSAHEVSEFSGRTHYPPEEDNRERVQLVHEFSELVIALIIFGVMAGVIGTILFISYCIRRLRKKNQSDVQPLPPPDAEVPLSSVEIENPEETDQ
Experimental: as §2

[13] = molecular target: T6, Rhesus monkey glycophorin A on Rhesus …; experiment: FACS, RBC Rh02
[14] = molecular target: T6, Rhesus monkey glycophorin A on Rhesus …; experiment: FACS, RBC Rh03
Experimental: as §2

[15] = molecular target: T2, purified human glycophorin A protein …; experiment: ELISA, purified IgG
Experimental: (§3) The “Sigma GPA” is a crude preparation of human GPA extracted from human red blood cells and is therefore representative of the highly glycosylated form of the native protein.
(§4) EC 50 values were determined from a dilution curve of the antibody. Sigma GPA is partially purified GPA extracted from human red blood cells and purchased from Sigma Chemical Company (cat # G5017), asialo hGPA is human GPA that was desialylated and ECD is the recombinantly expressed ectodomain which is the extracellular portion of GPA.

[16] = molecular target: T7, asialo hGPA (desialylated human GPA) (human, UniProt P02724 20-150, desialylated); experiment: ELISA, purified IgG
T7 construct: mature; also called asialo-GPA
T7 sequence (looked up): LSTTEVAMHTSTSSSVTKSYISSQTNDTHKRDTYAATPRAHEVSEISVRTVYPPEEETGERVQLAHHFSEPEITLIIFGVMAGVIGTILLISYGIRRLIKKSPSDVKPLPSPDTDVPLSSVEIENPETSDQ
Experimental: as §3, §4

[17] = molecular target: T1, recombinant human GPA ectodomain; experiment: ELISA, purified IgG
Experimental: as §3, §4

GP5 peptide = molecular target: T8, GP5 peptide (human, N-terminal biotin); experiment: peptides bound to plates (data not shown)
T8 construct: residues 42 to 61 of the human glycophorin A extracellular domain
T8 peptide: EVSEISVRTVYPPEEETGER

[18] = molecular target: T3, human glycophorin A in the red blood …; experiment: FACS, IgG titrated on human GPA expressing CHO-QMCF1 cells (17d post txn)
GP5-7 = molecular target: T9, GP5-7 (human, biotin at the N-terminus); experiment: ELISA, biotin-peptide on streptavidin plate, Fab 1 ug/ml
T9 construct: GP5 with alanine at position 7 (V7A), already in the entry
T9 peptide: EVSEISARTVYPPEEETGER

GP5-8 = molecular target: T10, GP5-8 (human, biotin at the N-terminus); experiment: as above
T10 construct: GP5 with alanine at position 8 (R8A), already in the entry
T10 peptide: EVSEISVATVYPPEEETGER

GP5-9 = molecular target: T11, GP5-9 (human, biotin at the N-terminus); experiment: as above
T11 construct: GP5 with alanine at position 9 (T9A), already in the entry
T11 peptide: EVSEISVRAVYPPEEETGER

GP5-10 = molecular target: T12, GP5-10 (human, biotin at the N-terminus); experiment: as above
T12 construct: GP5 with alanine at position 10 (V10A), already in the entry
T12 peptide: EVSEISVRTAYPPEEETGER

GP5-11 = molecular target: T13, GP5-11 (human, biotin at the N-terminus); experiment: as above
T13 construct: GP5 with alanine at position 11 (Y11A), already in the entry
T13 peptide: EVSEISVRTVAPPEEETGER

GP5-12 = molecular target: T14, GP5-12 (human, biotin at the N-terminus); experiment: as above
T14 construct: GP5 with alanine at position 12 (P12A), already in the entry
T14 peptide: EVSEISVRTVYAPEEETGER

GP5-13 = molecular target: T15, GP5-13 (human, biotin at the N-terminus); experiment: as above
T15 construct: GP5 with alanine at position 13 (P13A), already in the entry
T15 peptide: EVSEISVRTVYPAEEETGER

GP5-14 = molecular target: T16, GP5-14 (human, biotin at the N-terminus); experiment: as above
T16 construct: GP5 with alanine at position 14 (E14A), already in the entry
T16 peptide: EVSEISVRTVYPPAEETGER

GP5-15 = molecular target: T17, GP5-15 (human, biotin at the N-terminus); experiment: as above
T17 construct: GP5 with alanine at position 15 (E15A), already in the entry
T17 peptide: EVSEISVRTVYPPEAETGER

GP5-16 = molecular target: T18, GP5-16 (human, biotin at the N-terminus); experiment: as above
T18 construct: GP5 with alanine at position 16 (E16A), already in the entry
T18 peptide: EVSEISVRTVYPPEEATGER

GP5-17 = molecular target: T19, GP5-17 (human, biotin at the N-terminus); experiment: as above
T19 construct: GP5 with alanine at position 17 (T17A), already in the entry
T19 peptide: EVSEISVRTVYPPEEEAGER

GP5-18 = molecular target: T20, GP5-18 (human, biotin at the N-terminus); experiment: as above
T20 construct: GP5 with alanine at position 18 (G18A), already in the entry
T20 peptide: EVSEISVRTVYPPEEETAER

GP5-19 = molecular target: T21, GP5-19 (human, biotin at the N-terminus); experiment: as above
T21 construct: GP5 with alanine at position 19 (E19A), already in the entry
T21 peptide: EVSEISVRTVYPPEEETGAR

GP5-20 = molecular target: T22, GP5-20 (human, biotin at the N-terminus); experiment: as above
T22 construct: GP5 with alanine at position 20 (R20A), already in the entry
T22 peptide: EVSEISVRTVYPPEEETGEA

GP5-1 = molecular target: T23, GP5-1 (human, biotin at the N-terminus); experiment: as above
T23 construct: GP5 with alanine at position 1 (E1A), already in the entry
T23 peptide: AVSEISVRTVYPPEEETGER

GP5-2 = molecular target: T24, GP5-2 (human, biotin at the N-terminus); experiment: as above
T24 construct: GP5 with alanine at position 2 (V2A), already in the entry
T24 peptide: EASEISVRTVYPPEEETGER

GP5-3 = molecular target: T25, GP5-3 (human, biotin at the N-terminus); experiment: as above
T25 construct: GP5 with alanine at position 3 (S3A), already in the entry
T25 peptide: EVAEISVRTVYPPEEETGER

GP5-4 = molecular target: T26, GP5-4 (human, biotin at the N-terminus); experiment: as above
T26 construct: GP5 with alanine at position 4 (E4A), already in the entry
T26 peptide: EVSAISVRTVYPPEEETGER

GP5-5 = molecular target: T27, GP5-5 (human, biotin at the N-terminus); experiment: as above
T27 construct: GP5 with alanine at position 5 (I5A), already in the entry
T27 peptide: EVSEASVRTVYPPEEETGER

GP5-6 = molecular target: T28, GP5-6 (human, biotin at the N-terminus); experiment: as above
T28 construct: GP5 with alanine at position 6 (S6A), already in the entry
T28 peptide: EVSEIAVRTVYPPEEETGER

[19] = molecular target: T3, human glycophorin A in the red blood …; experiment: FACS, scFv-Fc
dog red blood cells [20] = molecular target: T4, dog red blood cells; experiment: FACS, Dog RBC
[21] = molecular target: T3, human glycophorin A in the red blood …; experiment: FACS, Human RBC
[22] = molecular target: T6, Rhesus monkey glycophorin A on Rhesus …; experiment: FACS, Rhesus RBC
[23] = molecular target: T5, Cynomolgus monkey glycophorin A on …; experiment: FACS, Cyno #1 RBC
[24] = molecular target: T5, Cynomolgus monkey glycophorin A on …; experiment: FACS, Cyno #2 RBC
[25] = molecular target: T5, Cynomolgus monkey glycophorin A on …; experiment: FACS, Cyno #3 RBC

B1: 6C12B8/H8 (antibody, V domains shown)
VH: RVQLQQSGAELARPGASVKMSCKASGYTFTTYTIHWVKQKTGQGLEWIGYINPSSDYTRYNPKFKDKATLTTDKSSSTAYMKLNSLASDDSAVYYCQTGTRDYWGQGTTLTVSS
VL: QIVLTQSPPIMSASPGEKVTMTCSAASSVSYIYWFQQKPGTSPKLWIYSTSTLPSGVPTRFSGSGSGTSYSLTISRMEAEDAATYYCHQRNSFPFTFGSGTKLEIR
notes: mouse IgG1/k from hybridoma; also called 6C12 parental; TPP-3422
- Kd [1]: 2.98 nM
- koff [1]: 0.00212 s⁻¹
- kon [1]: 711000 M⁻¹ s⁻¹
- t½ [1]: 5.4 min
- EC50 [2]: 0.326 nM
- EC50 [3]: 0.791 nM
- FACS signal [4]: 3100 relative flourescence units
- FACS signal (dog red blood cells [5]): 1.18 relative flourescence units
- FACS signal [6]: 292 relative flourescence units
- fluorescence intensity [7]: 2570
- fluorescence intensity [8]: 2570
- fluorescence intensity [9]: 3520
- fluorescence intensity [10]: 2540
- fluorescence intensity [11]: 2680
- fluorescence intensity [12]: 3780
- fluorescence intensity [13]: 3410
- fluorescence intensity [14]: 3180
- EC50 [15]: 0.64 nM
- EC50 [16]: 0.69 nM
- EC50 [17]: 0.59 nM
- binding result (GP5 peptide): binds
- EC50 (read off the curve) [18]: ~0.06 µg/mL

B2: TPP-5906 Fab (Fab, V domains shown)
VH: EVQLVQSGAEVKKPGASVKVSCKASGYTFTTYTIHWVRQAPGQGLEWMGYINPSSGYTRYNPKFKGRVTMTRDKSTSTAYMELRSLRSDDTAVYYCQTGTRDYWGQGTTVTVSS
VL: DIQLTQSPSFLSASVGDRVTITCRASSSVSYIYWFQQKPGKAPKLLIYATSTLQSGVPSRFSGSGSGTEYTLTISSLQPEDFATYYCHQRNSFPYTFGQGTKLEIKR
notes: also called parental humanized and germlined 6C12 Fab
- binding signal (ELISA) (GP5-7): 7180
- binding signal (ELISA) (GP5-8): 7360
- binding signal (ELISA) (GP5-9): 7280
- binding signal (ELISA) (GP5-10): 337
- binding signal (ELISA) (GP5-11): -1
- binding signal (ELISA) (GP5-12): 282
- binding signal (ELISA) (GP5-13): 2000
- binding signal (ELISA) (GP5-14): 9
- binding signal (ELISA) (GP5-15): 366
- binding signal (ELISA) (GP5-16): 3390
- binding signal (ELISA) (GP5-17): 6250
- binding signal (ELISA) (GP5-18): 6290
- binding signal (ELISA) (GP5-19): 4580
- binding signal (ELISA) (GP5-20): 6850
- binding signal (ELISA) (GP5-1): 5310
- binding signal (ELISA) (GP5-2): 6170
- binding signal (ELISA) (GP5-3): 6160
- binding signal (ELISA) (GP5-4): 4840
- binding signal (ELISA) (GP5-5): 6780
- binding signal (ELISA) (GP5-6): 6370

B3: 1H5 scFv-Fc (Fc fusion)
scFv: QVQLQQSGAELARPGASVKMSCKASGYTFTSYSIHWIKQRPGQSLEWIGYINPNSDYANYNQKFKDKATLTTDKSSTTAYMQLSSLTTDDSAVYYCQTGTRDYWGQGTTLTVSSGGGGSGGGGSGGGGSDIVMTQSPSSLSVSAGEKVTMSCKSSQSLLNSGNQKNYLAWYQQKPGQPPKLLIYGASTRESGVPDRFTGSGSGTDFTLTISSVQAEDLAVYYCQNDHSYPYTFGGGTKLEIKGGGGAGGGGCKPCICTVPEVSSVFIFPPKPKDVLTITLTPKVTCVVVDISKDDPEVQFSWFVDDVEVHTAQTQPREEQFNSTFRSVSELPIMHQDWLNGKEFKCRVNSAAFPAPIEKTISKTKGRPKAPQVYTIPPPKEQMAKDKVSLTCMITDFFPEDITVEWQWNGQPAENYKNTQPIMDTDGSYFVYSKLNVQKSNWEAGNTFTCSVLHEGLHNHHTEKSLSHSPGK
notes: as m18
- binding result [19]: no binding
- FACS signal (dog red blood cells [20]): 1 Flourescent units
- FACS signal [21]: 1 Flourescent units
- FACS signal [22]: 1 Flourescent units
- FACS signal [23]: 1 Flourescent units
- FACS signal [24]: 1 Flourescent units
- FACS signal [25]: 1 Flourescent units
